Source: patent US20240109945A1 (UNIVERSITY OF GEORGIA RESEARCH FOUNDATION, published 2024)
Numbering of substitutions follows the chain as printed. Values belong to the binder of their own block, whether it stands above or below them.

Key:
Asialofetuin = target: T1, Asialofetuin (bovine, UniProt P12763 19-359, glycoprotein; desialylated form of Fetuin); experiment: Western blot, 1 µg glycoprotein, Fbs1 variant as probe
T1 construct: also called AF; desialylated Asialofetuin
T1 sequence (looked up): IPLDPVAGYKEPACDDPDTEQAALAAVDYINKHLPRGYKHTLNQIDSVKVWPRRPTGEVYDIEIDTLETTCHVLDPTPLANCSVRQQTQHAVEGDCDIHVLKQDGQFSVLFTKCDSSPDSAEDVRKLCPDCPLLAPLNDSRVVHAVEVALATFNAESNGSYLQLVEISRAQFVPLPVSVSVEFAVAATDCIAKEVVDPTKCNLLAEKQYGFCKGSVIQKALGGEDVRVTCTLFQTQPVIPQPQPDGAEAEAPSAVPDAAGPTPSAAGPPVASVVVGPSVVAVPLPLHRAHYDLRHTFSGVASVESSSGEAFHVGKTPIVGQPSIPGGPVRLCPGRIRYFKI
Method: (§1) Lanes of each blot are labelled to show results for samples (1 μg each) of glycoproteins Asialofetuin, Fetuin, RNase B, Ovalbumin, Horse Radish Peroxidase, and IgG polyclonal antibody from rabbit, and a non-glycosylated protein RNase A, that were separated by SDS-PAGE, blotted on nitrocellulose membrane, and probed with Fbs1-1 (left blot) or Fbs1-2 (right blot).

Fetuin = target: T2, Fetuin (bovine, UniProt P12763 19-359, heavily sialylated glycoprotein); experiment: as above
T2 sequence (looked up): T1 sequence (looked up)
Method: as §1

binding result (Asialofetuin): binds
binding result (Fetuin): binds
B1: Variant Fbs1-1 (designed binder)
chain: MGSSHHHHHHHHSSGENLYFQSHMASQQEGLVPEGSADEERDHWQQFYFLSKRRRNLLRNPCGEEDLEGWSDVEHGGDGWRVEELPGDNGVEFTQDDSVKKYFASSFEWCRKAQVIDLQAEGYWEELLDTTQPAIVVKDWYSGRTDAGSLYELTVRLLSENEDVLAEFATGQVAVPEDGSWMEISHTFIDYGPGVRFVRFEHGGQDSVYWKGWFGARVTNSSVWVEP
notes: Expressed in E. coli and purified by IMAC

binding result (Asialofetuin): binds
binding result (Fetuin): binds
B2: Variant Fbs1-2 (designed binder)
chain: B1 chain with F107Y, E108R
